# Positions count from the first letter of the chain named. In names and notes the source's numbering stands.
# T1: Murine TNFR2 (mouse, UniProt P25119 23-474)
# T1 construct: Expressed on transiently transfected HEK293 cells; also called mouse TNFR2; TNFR2(mu)
# T1 sequence: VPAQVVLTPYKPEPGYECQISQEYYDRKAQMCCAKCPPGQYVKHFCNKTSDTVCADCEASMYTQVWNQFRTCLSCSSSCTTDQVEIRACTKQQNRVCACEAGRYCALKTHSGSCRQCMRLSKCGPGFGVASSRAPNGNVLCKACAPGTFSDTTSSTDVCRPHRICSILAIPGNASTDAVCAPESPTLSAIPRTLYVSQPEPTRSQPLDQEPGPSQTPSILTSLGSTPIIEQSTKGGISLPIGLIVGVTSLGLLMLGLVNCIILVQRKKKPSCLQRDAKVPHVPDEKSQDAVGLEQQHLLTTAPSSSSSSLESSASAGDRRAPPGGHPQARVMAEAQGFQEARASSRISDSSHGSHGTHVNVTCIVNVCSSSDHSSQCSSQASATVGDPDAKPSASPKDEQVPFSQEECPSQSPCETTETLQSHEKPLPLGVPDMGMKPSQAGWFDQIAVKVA
# T2: Cynomolgus TNFR2 (Macaca fascicularis (cynomolgus monkey), UniProt P20333 26-461 (human entry))
# T2 construct: Expressed on transiently transfected HEK293 cells; also called TNFR2-cyno; monkey TNFR2
# T2 chain: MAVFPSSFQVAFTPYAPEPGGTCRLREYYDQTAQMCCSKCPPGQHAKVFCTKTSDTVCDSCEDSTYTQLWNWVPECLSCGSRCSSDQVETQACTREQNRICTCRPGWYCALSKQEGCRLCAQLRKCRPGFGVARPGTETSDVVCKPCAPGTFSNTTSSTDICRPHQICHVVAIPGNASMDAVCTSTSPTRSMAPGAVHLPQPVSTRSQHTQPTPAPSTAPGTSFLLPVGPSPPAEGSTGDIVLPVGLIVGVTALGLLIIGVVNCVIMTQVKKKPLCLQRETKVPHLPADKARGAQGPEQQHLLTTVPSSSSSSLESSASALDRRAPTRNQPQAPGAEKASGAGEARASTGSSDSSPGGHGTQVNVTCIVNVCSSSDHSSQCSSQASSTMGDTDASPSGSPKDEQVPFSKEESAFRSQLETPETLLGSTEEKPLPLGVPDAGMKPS
# T3: Human TNFR2 (human, UniProt P20333 23-461)
# T3 construct: On cells: HeLa-TNFR2, HT1080-Bcl2-TNFR2, transiently transfected HEK293; endogenous on Kym-1 cells; also called huTNFR2; TNFRSF1B
# T3 sequence: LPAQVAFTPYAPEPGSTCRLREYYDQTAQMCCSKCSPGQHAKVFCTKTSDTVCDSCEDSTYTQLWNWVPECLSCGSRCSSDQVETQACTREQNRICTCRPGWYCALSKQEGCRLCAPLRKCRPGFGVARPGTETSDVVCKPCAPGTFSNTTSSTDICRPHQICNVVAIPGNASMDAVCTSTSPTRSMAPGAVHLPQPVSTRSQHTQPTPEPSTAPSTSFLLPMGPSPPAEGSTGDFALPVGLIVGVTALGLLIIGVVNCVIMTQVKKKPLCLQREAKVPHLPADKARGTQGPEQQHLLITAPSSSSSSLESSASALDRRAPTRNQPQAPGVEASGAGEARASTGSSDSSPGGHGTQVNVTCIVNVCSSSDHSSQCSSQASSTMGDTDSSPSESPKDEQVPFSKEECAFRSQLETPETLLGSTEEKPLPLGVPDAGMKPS
# B1: VHH:C74-Fc-GpL (Fc fusion)
# VHH: DVQLVESGGGLVQSGGSLRLSCAASGFPFSSSDMTWVRQTSGSVFEWVSDINPDGQNTRYADSVKGRFIISRDNAKSTLYLQMDSLKTDDTAVYYCAADPGSSGGSLSYWGKGTLVTVSS
# notes: also called VHH-Fc-GpL variant of C74; not shown: The Fc domain, the C-terminal GpL reporter and the linkers or tags of the VHH-Fc-GpL construct; No entry gives the joined chain or says which Fc variant was used
# B2: VHH:C118-Fc-GpL (Fc fusion)
# VHH: QVQLVESGGGSVQAGGSLRLSCAASGHTYRSNCMGWFRQAPGKEREGVAAMYTGTDWKYYADSVKGRFTISQDKAKNTLYLVMNNLKPDDTGVYYCAADFGFICGYDSDDDPYDAWGQGTQVTVSS
# notes: also called VHH-Fc-GpL format protein of C118; not shown: The Fc domain, the C-terminal GpL reporter and the linkers or tags of the VHH-Fc-GpL construct; No entry gives the joined chain or says which Fc variant was used
# B3: VHH:C36-Fc-GpL (Fc fusion)
# VHH: HVQLVESGGGSVQAGGSLRLSCAASGFTFSSYYMSWVRQAPGKGLEWVSAIYSDDSDNYSDSVKGRFTISKDNAKNTLYLQMNSLKPEDTAMYYCAAIRIGTDQYKFWGQGTQVTVSS
# notes: also called VHH-Fc-GpL format protein of C36; not shown: The Fc domain, the C-terminal GpL reporter and the linkers or tags of the VHH-Fc-GpL construct; No entry gives the joined chain or says which Fc variant was used
# B4: VHH:C18-Fc-GpL (Fc fusion)
# VHH: DVQLVESGGGSVQTGGSLTLSCAISGSTSERYCMGWFRQAPGREREGVAATSLTGRGAQFYADSVKGRFTISLDDAKNTLYLQMDSLRPDDTAVYYCAADVGFLCGYDSDNDPFYDWGQGTQVTVSS
# notes: also called VHH-Fc-GpL variant of C18; not shown: The Fc domain, the C-terminal GpL reporter and the linkers or tags of the VHH-Fc-GpL construct; No entry gives the joined chain or says which Fc variant was used
# B5: 3xVHH:C188-Fc-GpL (Fc fusion, not shown: a dimerising Fc or GST; small tags and cut ends)
# VHH: B4 VHH with M34L, A99E
# notes: also called hexavalent 3×VHH-Fc-GpL construct of C188
# B6: 3×VHH:C18-Fc-GpL (Fc fusion)
# VHH: B4 VHH
# notes: also called 3×VHH-Fc-GpL variant of C18; hexavalent format of C18; not shown: the listing has no entry for the 3xVHH-Fc-GpL format
# B7: 3×VHH:C74-Fc-GpL (Fc fusion)
# VHH: B1 VHH
# notes: also called 3×VHH-Fc-GpL variant of C74; hexavalent format for C74; not shown: the listing has no entry for the 3xVHH-Fc-GpL format
# B8: 3xVHH:C238-Fc-GpL (Fc fusion, not shown: a dimerising Fc or GST; small tags and cut ends)
# VHH: QVQLVESGGGSVQPGGSLTLSCVDSGSAYLSYCMAWFRQAPGKEREGVAAIYYGGDSYYADSVKGRFTISQDHAKNTMYLQMNSLKPEDTAVYYCAADVGFICGYDSDNDPPNDWGQGTQVTVSS
# notes: also called hexavalent 3×VHH-Fc-GpL construct of C238
# B9: C31-2-IgG1(N297A)-LC:GpL (antibody)
# light: EVKLVPRQLDYKDDDDKELQAVVTQESALTTSPGETVTLTCRSSTGAVTTSNYANWVQEKPDHLFTGLIGGTNNRAPGVPARFSGSVIGDKAALTITGAQTEDEAIYFCALWYSNHWVFGGGTKLTVLGGSEIKRTVAAPSVFIFPPSDEQLKSGTASVVCLLNNFYPREAKVQWKVDNALQSGNSQESVTEQDSKDSTYSLSSTLTLSKADYEKHKVYACEVTHQGLSSPVTKSFNRGECLEKPTENNEDFNIVAVASNFATTDLDADRGKLPGKKLPLEVLKEMEANARKAGCTRGCLICLSHIKCTPKMKKFIPGRCHTYEGDKESAQGGIGEAIVDIPEIPGFKDLEPMEQFIAQVDLCVDCTTGCLKGLANVQCSDLLKKWLPQRCATFASKIQGQVDKIKGAGGD
# heavy: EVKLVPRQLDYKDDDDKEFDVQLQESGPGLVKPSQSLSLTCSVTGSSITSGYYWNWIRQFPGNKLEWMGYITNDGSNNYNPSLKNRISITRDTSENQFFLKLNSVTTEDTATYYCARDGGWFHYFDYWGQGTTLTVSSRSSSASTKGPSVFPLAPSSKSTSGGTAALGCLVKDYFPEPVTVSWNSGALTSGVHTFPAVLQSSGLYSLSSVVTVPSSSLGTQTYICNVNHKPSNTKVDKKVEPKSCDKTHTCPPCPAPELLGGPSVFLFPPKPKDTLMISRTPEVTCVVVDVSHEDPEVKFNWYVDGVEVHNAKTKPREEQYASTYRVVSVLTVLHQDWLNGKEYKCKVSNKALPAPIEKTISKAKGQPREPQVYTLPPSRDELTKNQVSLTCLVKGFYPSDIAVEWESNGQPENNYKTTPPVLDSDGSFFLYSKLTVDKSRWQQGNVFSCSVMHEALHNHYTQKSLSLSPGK
# notes: copies: 2 + 2
# B10: C29-IgG1(N297A)-LC:GpL (antibody)
# light: EVKLVPRQLDYKDDDDKELDVVMTQTPLSLPVSLGDQASISCRASQSLVHSNGNTYLQWYLQKPGQSPKLLIYKVSNRFSGVPDRFSGSGSGTDFTLKISRVEAEDLGVFFCSQSTHVPFTFGSGTKLEIKGSEIKRTVAAPSVFIFPPSDEQLKSGTASVVCLLNNFYPREAKVQWKVDNALQSGNSQESVTEQDSKDSTYSLSSTLTLSKADYEKHKVYACEVTHQGLSSPVTKSFNRGECLEKPTENNEDFNIVAVASNFATTDLDADRGKLPGKKLPLEVLKEMEANARKAGCTRGCLICLSHIKCTPKMKKFIPGRCHTYEGDKESAQGGIGEAIVDIPEIPGFKDLEPMEQFIAQVDLCVDCTTGCLKGLANVQCSDLLKKWLPQRCATFASKIQGQVDKIKGAGGD
# heavy: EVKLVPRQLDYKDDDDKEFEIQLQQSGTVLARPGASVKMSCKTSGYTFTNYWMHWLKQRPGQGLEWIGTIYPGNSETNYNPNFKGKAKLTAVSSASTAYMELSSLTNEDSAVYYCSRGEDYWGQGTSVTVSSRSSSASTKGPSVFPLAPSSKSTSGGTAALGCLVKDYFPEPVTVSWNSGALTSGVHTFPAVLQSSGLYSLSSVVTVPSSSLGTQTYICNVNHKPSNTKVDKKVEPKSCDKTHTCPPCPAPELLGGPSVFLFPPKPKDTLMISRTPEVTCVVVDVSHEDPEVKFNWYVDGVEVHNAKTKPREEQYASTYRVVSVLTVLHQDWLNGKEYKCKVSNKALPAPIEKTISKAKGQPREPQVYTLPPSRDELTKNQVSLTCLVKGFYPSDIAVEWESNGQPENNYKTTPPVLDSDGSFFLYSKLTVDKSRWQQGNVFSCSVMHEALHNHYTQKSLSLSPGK
# notes: copies: 2 + 2
# B11: (68/69)-IgG1(N297A)-LC:GpL (antibody)
# light: EVKLVPRQLDYKDDDDKELDVQMTQSPSSLSASVGDRVTITCKASQDINKFIAWYQQKPGKAPKLLIHYTSTLQPGIPSRFSGSGSGRDYTFTISSLQPEDIATYYCLQYGNLWTFGGGTKVEIKGSEIKRTVAAPSVFIFPPSDEQLKSGTASVVCLLNNFYPREAKVQWKVDNALQSGNSQESVTEQDSKDSTYSLSSTLTLSKADYEKHKVYACEVTHQGLSSPVTKSFNRGECLEKPTENNEDFNIVAVASNFATTDLDADRGKLPGKKLPLEVLKEMEANARKAGCTRGCLICLSHIKCTPKMKKFIPGRCHTYEGDKESAQGGIGEAIVDIPEIPGFKDLEPMEQFIAQVDLCVDCTTGCLKGLANVQCSDLLKKWLPQRCATFASKIQGQVDKIKGAGGD
# heavy: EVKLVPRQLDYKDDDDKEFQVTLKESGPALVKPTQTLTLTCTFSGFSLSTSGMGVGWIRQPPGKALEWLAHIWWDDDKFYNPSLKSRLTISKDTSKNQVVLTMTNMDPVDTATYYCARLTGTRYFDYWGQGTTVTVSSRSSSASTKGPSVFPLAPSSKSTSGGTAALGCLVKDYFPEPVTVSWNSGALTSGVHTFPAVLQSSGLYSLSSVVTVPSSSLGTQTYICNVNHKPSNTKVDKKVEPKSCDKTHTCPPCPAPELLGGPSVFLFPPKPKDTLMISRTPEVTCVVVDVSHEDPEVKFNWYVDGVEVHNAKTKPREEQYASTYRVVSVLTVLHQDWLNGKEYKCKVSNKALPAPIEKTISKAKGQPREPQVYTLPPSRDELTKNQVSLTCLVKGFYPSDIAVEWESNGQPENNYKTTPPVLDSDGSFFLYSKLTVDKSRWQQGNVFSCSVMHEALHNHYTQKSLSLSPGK
# notes: Gaussia princeps luciferase (GpL) fused to the light chain; copies: 2 + 2
# Molecular target: T1, Murine TNFR2
# Experiment: equilibrium binding of VHH-Fc-GpL to cells expressing mouse TNFR2, 37 C
# Description: (§1) Specific binding (open circles) was obtained by subtraction of the non-specific binding values (Hek293 cells—crosses) from the binding values for transfectants expressing human TNFR2 (total binding—closed circles). Specific binding was analyzed with the “nonlinear regression to a one-site specific binding curve” function of the GraphPad Prism5 software.
# (§2) The equivalent experiment was also performed using TNFR2 from different species, namely from Mus musculus (mouse), Macaca fascicularis (cynomolgus monkey), and Chlorocebus sabaeus (African green monkey) to study the ability of the VHH regions to bind to TNFR2 from different species. The ability to cross react to TNFR2 from different species can be helpful in allowing the antibodies to be studied in various models before assessment in human patients.
row,Binder,binding result
1,B1,no binding
2,B2,no binding
3,B3,no binding

# Molecular target: T2, Cynomolgus TNFR2
# Experiment: equilibrium binding of VHH-Fc-GpL to cells expressing cynomolgus TNFR2, 37 C
# Description: as §1, §2
row,Binder,binding result
1,B1,no binding

# Molecular target: T2, Cynomolgus TNFR2
# Experiment: equilibrium binding of VHH-Fc-GpL to cells expressing cynomolgus TNFR2, 37 C; column head Affinity (ng/ml)
# Description: as §1, §2
row,Binder,Kd [µg/mL]
1,B4,0.05

# Molecular target: T4, African green monkey TNFR2 (Chlorocebus sabaeus (African green …))
# T4 construct: whole, on cells
# Experiment: equilibrium binding of VHH-Fc-GpL to cells expressing African green monkey TNFR2, 37 C; column head Affinity (ng/ml)
# Description: as §1, §2
row,Binder,Kd [µg/mL]
1,B4,0.06
2,B1,0.06
3,B2,0.1
4,B3,0.08

# Molecular target: T3, Human TNFR2
# Experiment: equilibrium binding of 3xVHH-Fc-GpL to HEK293 cells expressing human TNFR2 (panel head Hek-293-TNFR2-human), 37 °C
row,Binder,Kd [µg/mL]
1,B5,0.003
2,B6,0.001
3,B7,0.001
4,B8,0.006

# Molecular target: T1, Murine TNFR2
# Experiment: equilibrium binding of 3xVHH-Fc-GpL to HEK293 cells expressing murine TNFR2 (panel head Hek-293-TNFR2-murine), 37 °C
row,Binder,Kd [µg/mL]
1,B5,0.07
2,B6,0.18
3,B8,0.1

# Molecular target: T3, Human TNFR2
# Experiment: binding of 3xVHH-Fc-GpL to HEK293 cells transiently transfected with TNFR2; empty-vector cells as unspecific binding
row,Binder,Kd [µg/mL]
1,B5,0.005
2,B6,0.006
3,B7,0.035
4,B8,0.008

# Molecular target: T3, Human TNFR2
# Experiment: equilibrium binding of the GpL fusion protein to HeLa-TNFR2 cells, 37 °C; unspecific binding on HeLa cells subtracted; cell-bound luciferase
# Description: FIG. 11—Binding properties of TNFR2-specific antibodies. (A) Equilibrium binding of the indicated anti-TNFR2 antibody GpL fusion proteins to cell expressed human TNFR2 at 37° C. (B) HeLa-TNFR2 cells were pretreated with the indicated amounts of anti-TNFR2 antibodies or remained untreated. […] Binding of the various constructs to untransfected HeLa cells was analyzed to obtain unspecific binding values.
# Affinity of TNFR2-specific antibodies and antibody variants were also evaluated with HeLa cells and HeLa cells stably expressing human TNFR2. HeLa and HeLa-TNFR2 cells were seeded out in 24-well plates. Next day, the cells were challenged with the indicated concentrations of GpL-labelled TNFR2 antibodies for 1 hour at 37° C. To eliminate the unbound antibodies, the cells were washed 10 times with ice-cold PBS. The cells were then scratched and collected in 50 μl of medium (RPMI, 0.5% FCS) and transferred to black 96-well plates for measurement as mentioned above. The specific binding of different TNFR2-specific antibodies/antibody variants was calculated by subtracting the unspecific binding (values obtained from HeLa cells) from total binding (obtained from HeLa-TNFR2). The resulting values were fitted using the non-linear regression analysis option of GraphPad Prism 5.
Binder,Bmax [kRLU],Kd [µg/mL]
B9,890,2.19
B10,250,0.8
B11,1130,0.044

# Molecular target: T3, Human TNFR2
# Experiment: equilibrium binding of VHH-Fc-GpL to cells expressing human TNFR2, 37 °C; HEK293 cells as unspecific binding; one-site fit of specific binding
row,Binder,Kd [µg/mL]
1,B4,0.23
2,B1,0.08
3,B2,0.13
4,B3,3.2
